Laboratory results: publication PMC4837482, “The complex binding mode of the peptide hormone H2 relaxin to its receptor RXFP1” (Nature Communications, 2016)
Where no end group is shown, it is not given here. The star is where a group is joined. DTPA = O=C(O)CN(CCN(CC(=O)O)CC(=O)O)CCN(CC(=O)O)CC(=O)*

T1: RXFP1 G45W46-AA (Homo sapiens, UniProt Q9HBX9, G67A/W68A)
T1 construct: transiently transfected human embryonic kidney (HEK) 293T cells expressing full-length RXFP1 and mutants; expressed in transfected cells; host or cells: HEK293T
T1 sequence (Q9HBX9 23-757 G67A/W68A limits assumed): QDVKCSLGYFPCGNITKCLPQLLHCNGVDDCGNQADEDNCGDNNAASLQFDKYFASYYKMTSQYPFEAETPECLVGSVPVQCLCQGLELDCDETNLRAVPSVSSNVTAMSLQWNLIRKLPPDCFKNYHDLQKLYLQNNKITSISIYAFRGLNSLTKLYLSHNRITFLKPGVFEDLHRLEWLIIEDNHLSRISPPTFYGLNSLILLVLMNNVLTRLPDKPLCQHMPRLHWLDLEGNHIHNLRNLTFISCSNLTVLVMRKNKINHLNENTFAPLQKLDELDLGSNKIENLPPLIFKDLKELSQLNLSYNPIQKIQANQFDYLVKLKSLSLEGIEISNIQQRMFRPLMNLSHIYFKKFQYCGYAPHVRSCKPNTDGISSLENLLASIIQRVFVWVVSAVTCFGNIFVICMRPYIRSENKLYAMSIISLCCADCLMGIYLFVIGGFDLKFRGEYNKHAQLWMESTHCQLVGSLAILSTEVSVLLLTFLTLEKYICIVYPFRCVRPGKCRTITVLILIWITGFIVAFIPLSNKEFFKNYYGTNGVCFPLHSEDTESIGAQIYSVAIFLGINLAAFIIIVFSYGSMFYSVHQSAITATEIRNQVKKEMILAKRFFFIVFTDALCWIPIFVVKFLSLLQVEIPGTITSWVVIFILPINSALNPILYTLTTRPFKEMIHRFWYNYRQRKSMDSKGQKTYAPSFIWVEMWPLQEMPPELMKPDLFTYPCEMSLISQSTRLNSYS

T2: RXFP1 D51A, full length (human)
T2 sequence (Q9HBX9 1-757 with D51A, looked up): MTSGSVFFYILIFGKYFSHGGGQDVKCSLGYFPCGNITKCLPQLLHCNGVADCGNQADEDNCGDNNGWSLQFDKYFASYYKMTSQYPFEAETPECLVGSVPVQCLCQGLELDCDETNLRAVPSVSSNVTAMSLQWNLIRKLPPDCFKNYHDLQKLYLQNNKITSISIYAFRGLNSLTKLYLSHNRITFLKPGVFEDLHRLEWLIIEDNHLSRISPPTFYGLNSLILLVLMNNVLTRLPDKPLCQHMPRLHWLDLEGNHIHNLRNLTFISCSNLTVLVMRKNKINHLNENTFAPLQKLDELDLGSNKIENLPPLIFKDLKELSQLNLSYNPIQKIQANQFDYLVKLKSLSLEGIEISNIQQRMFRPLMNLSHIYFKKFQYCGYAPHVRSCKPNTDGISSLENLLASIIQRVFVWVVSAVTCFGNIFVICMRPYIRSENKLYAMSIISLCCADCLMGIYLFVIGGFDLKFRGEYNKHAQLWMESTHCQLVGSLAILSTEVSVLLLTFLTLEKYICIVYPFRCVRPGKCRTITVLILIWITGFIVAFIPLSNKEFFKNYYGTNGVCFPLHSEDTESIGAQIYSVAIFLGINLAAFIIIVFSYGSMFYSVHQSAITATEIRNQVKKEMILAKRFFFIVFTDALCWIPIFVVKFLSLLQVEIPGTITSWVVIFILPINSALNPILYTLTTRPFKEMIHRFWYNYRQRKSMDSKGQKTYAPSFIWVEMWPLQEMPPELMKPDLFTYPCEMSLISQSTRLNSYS

B1: Europium-labelled H2 relaxin (ligand, human)
chain 1: {DTPA}-QLYSALANKCCHVGCTKRSLARFC
chain 2: DSWMEEVIKLCGRELVRAQIAICGMSTWS
modifications: not fully specified; ends and bridges not checked; also: DTPA cage loaded with Eu^3+
notes: A chain of human gene-2 (H2) relaxin; numbers count on: the A chain; B chain of human gene-2 (H2) relaxin; numbers count on: the B chain; also called Eu-H2 relaxin; Eu-H2

Assays:
RXFP1 G45W46-AA = biological target: T1, RXFP1 G45W46-AA; experiment: Eu-H2 relaxin saturation binding assay, transfected HEK293T cells; details: construct G45W46-AA, maximum H2 concentration 15 nM
[1] = biological target: RXFP1 A55L, full length (human); experiment: europium-labelled ligand saturation binding on cells (time-resolved fluorescence); HEK293T cells transiently transfected with receptor, 96-well plates; increasing Eu-H2 relaxin (maximum 15 nM) with or without 1 μM unlabelled H2 relaxin, 1 h, room temperature; 20 mM HEPES pH 7.5, […] CaCl2, 50 mM NaCl, 0.01% NaN3, 1% BSA; one-site fit
[2] = biological target: RXFP1 A55S, full length (human); experiment: as above
[3] = biological target: T2, RXFP1 D51A, full length (human); experiment: as above
[4] = biological target: RXFP1 G45A, full length (human); experiment: as above
[5] = biological target: RXFP1 W46A, full length (human); experiment: as above
[6] = biological target: RXFP1 Y57A, full length (human); experiment: as above

| Molecule | Kd (RXFP1 G45W46-AA) [nM] | Kd [1] [nM] | Kd [2] [nM] | Kd [3] [nM] | Kd [4] [nM] | Kd [5] [nM] | Kd [6] [nM] |
| --- | --- | --- | --- | --- | --- | --- | --- |
| H2 relaxin: two-chain 6-kDa peptide hormone structurally related to insulin; recombinant human gene-2 H2 relaxin provided by Corthera | > 20 | – | – | – | – | – | – |
| B1 | – | 1.54 | 0.8 | 0.73 | 19.1 | 12.3 | 0.81 |
